PMC12199398, “Manipulating the Light Systemic Signal HY5 Greatly Improve Fruit Quality in Tomato”

T1: HY5 (His-HY5) (Solanum lycopersicum (tomato), UniProt Q9SM50 1-158)
T1 sequence: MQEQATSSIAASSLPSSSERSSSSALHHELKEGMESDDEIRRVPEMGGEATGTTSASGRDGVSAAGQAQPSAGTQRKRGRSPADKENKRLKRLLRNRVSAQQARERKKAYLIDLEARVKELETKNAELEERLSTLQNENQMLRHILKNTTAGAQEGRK

B1: SS1 ACE probe (dsDNA)
DNA 1: CACCCTTTAGACGTATTACAGTAG
DNA 2: CTACTGTAATACGTCTAAAGGGTG
B2: LIN6 A-box probe (dsDNA)
DNA 1: CGCAATTAAATACGTAAGGGCTTTGA
DNA 2: TCAAAGCCCTTACGTATTTAATTGCG
B3: VI ACE probe (dsDNA)
DNA 1: AAGAAAAAAAATGACGTTTTTCCCCTTATT
DNA 2: AATAAGGGGAAAAACGTCATTTTTTTTCTT
B4: LIN5 ACE probe (dsDNA)
DNA 1: GTAAATTATTACGTCAGGCTTTAT
DNA 2: ATAAAGCCTGACGTAATAATTTAC
B5: PDS C/G-box probe (dsDNA)
DNA 1: TGGTGGGACGTGTCAAATT
DNA 2: AATTTGACACGTCCCACCA
B6: SS7 A-box probe (dsDNA)
DNA 1: GCCCGGTGTCTACGTAAGATTGACAG
DNA 2: CTGTCAATCTTACGTAGACACCGGGC
B7: PSY1 Z-box probe (dsDNA)
DNA 1: GAAATCTACGTGTCTTAA
DNA 2: TTAAGACACGTAGATTTC

Each binder was assayed against T1, HY5 (His-HY5) (assay: EMSA; LightShift Chemiluminescent EMSA Kit (Thermo 20148); buffer, salt, pH and temperature not stated). Conditions: protein: recombinant; tags: His (pET-32a); chain copies: 2; blunt.

Binding result, binds:
B1
B2
B3
B4
B5
B6
B7
